The target of test [1] is T1, pure recombinant Dll4 (human, UniProt Q9NR61 27-524).
T1 construct: also called recombinant DLL4 ligand; immobilized Dll4
Description: SPR, Biacore A100; immobilized recombinant Dll4, antibody at 20, 10, 5, 2.5 and 1.2 µg/ml. (In general: In SPR one partner is held on a chip, and binding of the other changes the refractive index at the surface.)

Test [2] concerns the target T2, mouse DLL4 (on transfected CHO cells) (mouse, UniProt Q9JI71 27-686).
T2 construct: also called murine DLL4; murine Dll4
Description: flow cytometry on transfected CHO cells (STL4 as one of 'all three'). In general terms: A flow cytometer gives signals particle by particle.

Test [3] addresses T3, human Jagged2 (on transfected CHO cells) (human, UniProt Q9Y219 24-1238).
T3 construct: whole, on cells
Description: flow cytometry on transfected CHO cells (STL4 as one of the three).

Test [4] deals with T4, human DLL1 (on transfected CHO cells) (human, UniProt O00548 18-723).
T4 construct: whole, on cells; also called delta-like-1
T4 sequence (looked up): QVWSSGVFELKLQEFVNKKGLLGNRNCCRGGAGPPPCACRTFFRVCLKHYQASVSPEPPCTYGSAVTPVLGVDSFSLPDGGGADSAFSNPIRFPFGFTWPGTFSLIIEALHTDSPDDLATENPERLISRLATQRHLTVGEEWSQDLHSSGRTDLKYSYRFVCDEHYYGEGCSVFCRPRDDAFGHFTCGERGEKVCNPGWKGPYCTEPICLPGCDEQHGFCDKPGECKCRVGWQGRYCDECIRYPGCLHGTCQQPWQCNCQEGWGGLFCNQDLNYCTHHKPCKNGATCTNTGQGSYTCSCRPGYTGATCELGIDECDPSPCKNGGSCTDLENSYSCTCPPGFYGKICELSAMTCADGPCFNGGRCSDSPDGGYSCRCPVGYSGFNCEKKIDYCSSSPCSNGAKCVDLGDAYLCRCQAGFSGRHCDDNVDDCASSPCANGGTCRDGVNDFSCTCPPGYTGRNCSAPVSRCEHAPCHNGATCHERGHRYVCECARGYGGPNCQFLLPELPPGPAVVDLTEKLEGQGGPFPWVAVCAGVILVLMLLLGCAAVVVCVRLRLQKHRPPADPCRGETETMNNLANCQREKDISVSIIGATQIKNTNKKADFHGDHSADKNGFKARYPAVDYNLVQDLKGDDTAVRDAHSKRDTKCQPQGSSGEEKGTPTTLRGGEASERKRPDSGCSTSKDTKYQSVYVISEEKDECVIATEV
The test is described as above.

For test [5], the target named is T5, human Jagged1 (on transfected CHO cells) (human, UniProt P78504 34-1218).
T5 construct: whole, on cells
T5 sequence (P78504 34-1218): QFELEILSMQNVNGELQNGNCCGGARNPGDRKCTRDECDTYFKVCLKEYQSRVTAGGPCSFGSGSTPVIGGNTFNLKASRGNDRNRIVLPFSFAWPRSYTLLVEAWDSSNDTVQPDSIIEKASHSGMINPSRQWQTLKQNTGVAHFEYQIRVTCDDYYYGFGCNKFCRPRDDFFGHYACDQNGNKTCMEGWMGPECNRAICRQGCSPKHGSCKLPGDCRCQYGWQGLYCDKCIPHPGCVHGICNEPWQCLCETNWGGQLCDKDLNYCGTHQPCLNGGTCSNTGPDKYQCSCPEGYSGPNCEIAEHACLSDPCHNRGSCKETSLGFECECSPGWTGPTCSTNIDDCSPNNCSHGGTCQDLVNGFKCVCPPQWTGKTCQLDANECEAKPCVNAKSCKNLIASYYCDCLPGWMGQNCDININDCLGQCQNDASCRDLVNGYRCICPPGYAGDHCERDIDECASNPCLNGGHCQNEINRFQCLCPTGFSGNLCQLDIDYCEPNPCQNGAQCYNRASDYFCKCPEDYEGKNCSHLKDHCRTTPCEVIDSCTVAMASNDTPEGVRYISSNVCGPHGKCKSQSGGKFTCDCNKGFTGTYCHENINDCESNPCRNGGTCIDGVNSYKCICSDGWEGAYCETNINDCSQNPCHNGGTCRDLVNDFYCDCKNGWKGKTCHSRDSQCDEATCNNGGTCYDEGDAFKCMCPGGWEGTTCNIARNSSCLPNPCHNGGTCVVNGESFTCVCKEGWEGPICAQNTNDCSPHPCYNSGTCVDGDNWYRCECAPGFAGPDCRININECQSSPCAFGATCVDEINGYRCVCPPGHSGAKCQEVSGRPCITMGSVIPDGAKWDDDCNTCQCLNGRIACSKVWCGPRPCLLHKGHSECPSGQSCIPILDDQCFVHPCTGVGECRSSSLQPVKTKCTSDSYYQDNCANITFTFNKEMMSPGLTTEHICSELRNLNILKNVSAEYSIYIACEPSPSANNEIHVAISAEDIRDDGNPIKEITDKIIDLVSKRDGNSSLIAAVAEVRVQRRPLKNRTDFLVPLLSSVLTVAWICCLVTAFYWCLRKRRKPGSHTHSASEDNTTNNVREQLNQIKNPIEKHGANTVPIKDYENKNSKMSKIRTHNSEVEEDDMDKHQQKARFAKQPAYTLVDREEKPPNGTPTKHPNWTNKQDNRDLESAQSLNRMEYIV
Described as above.

T1 sequence (Q9NR61 27-524 limits assumed): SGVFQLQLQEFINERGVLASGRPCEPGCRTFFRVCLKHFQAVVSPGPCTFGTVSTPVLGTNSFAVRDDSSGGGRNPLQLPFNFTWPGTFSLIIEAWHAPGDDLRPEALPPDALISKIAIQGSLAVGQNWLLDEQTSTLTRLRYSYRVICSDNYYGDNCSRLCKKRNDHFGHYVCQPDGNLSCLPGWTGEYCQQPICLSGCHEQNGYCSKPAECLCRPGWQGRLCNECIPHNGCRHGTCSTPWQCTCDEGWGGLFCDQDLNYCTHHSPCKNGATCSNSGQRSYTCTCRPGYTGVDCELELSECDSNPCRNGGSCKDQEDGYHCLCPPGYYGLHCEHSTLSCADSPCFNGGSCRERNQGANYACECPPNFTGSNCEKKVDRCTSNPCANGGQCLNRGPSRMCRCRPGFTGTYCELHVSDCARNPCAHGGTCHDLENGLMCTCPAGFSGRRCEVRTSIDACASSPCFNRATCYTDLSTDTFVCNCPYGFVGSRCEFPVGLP
T3 sequence (Q9Y219 24-1238): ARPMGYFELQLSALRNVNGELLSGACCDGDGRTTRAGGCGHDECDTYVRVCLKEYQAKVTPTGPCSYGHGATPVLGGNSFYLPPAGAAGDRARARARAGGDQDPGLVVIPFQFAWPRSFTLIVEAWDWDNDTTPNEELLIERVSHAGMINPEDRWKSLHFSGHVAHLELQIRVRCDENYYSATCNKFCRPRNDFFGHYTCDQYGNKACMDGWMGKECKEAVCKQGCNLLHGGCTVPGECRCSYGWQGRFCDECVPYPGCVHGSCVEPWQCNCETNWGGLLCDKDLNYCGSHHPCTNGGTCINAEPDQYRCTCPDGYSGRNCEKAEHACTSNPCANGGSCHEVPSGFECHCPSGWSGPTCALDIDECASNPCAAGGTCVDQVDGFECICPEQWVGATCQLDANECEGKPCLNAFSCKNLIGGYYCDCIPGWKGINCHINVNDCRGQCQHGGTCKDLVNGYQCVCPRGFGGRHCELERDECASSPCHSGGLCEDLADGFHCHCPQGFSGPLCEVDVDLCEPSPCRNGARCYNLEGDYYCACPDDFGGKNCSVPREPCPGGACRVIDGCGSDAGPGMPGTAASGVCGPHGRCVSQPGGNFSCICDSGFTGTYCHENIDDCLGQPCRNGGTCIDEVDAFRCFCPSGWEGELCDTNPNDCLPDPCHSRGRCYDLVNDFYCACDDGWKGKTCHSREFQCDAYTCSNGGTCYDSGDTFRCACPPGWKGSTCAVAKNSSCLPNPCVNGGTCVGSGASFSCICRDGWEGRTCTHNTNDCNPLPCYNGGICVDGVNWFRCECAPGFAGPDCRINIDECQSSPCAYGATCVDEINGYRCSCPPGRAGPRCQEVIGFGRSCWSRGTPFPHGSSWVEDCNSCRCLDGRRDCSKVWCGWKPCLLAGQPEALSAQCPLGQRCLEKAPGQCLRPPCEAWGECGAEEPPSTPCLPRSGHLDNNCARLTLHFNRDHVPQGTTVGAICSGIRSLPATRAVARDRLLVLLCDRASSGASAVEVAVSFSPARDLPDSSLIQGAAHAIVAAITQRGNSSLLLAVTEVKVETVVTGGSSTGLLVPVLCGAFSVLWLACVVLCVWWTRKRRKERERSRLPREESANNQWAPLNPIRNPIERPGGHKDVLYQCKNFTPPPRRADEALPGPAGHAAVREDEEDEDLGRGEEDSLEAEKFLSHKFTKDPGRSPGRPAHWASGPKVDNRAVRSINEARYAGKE
T2 sequence (Q9JI71 other isoform, or with tags, fused parts or gaps limits assumed): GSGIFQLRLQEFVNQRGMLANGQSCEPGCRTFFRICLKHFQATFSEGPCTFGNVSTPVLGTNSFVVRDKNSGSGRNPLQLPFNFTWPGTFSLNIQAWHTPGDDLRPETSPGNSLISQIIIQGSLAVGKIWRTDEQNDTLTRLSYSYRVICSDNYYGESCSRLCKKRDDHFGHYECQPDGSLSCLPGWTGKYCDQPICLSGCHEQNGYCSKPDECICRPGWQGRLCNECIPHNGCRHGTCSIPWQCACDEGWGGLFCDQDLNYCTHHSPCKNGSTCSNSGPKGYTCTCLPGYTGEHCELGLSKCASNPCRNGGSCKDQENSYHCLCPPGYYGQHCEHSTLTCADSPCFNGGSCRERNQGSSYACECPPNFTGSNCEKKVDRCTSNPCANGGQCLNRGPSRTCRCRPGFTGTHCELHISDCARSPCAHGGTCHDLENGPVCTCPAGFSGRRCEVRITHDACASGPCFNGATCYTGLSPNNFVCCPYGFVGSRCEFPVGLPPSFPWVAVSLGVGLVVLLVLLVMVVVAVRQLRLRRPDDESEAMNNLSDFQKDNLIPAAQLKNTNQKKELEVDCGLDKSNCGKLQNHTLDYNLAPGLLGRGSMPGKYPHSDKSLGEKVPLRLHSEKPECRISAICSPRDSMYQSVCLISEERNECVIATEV

B1: cSTL4 (antibody, V domains shown)
VH: EVQLQQSGPELVKPGASVKMSCKASGYTFTSYVMHWVKQKPGQGLEWIGYIIPYNDGTKYNEKFKGKATLTSDKSSSTAYMELSSLTSEDSAVYYCARSEDYDHFDYWGQGTTVTVSS
VL: QIVLSQSPVILSASPGEKVTMTCRASSSVSFMHWYQQKPGSSPKPWIYATSNLTSGVPTRFSGSGSGTSYSLTISRVEAEDAATYYCQQWSSNPFTFGSGTKLEIKR
notes: Chimeric form of STL4: mouse VH and VL fused to human IgG heavy and kappa constant regions, expressed from pCAcc vectors; also called chimeric anti-Dll4 antibody; chimeric antibody; not shown: human IgG heavy constant region CH1-H-CH2-CH3; human immunoglobulin kappa light chain constant region
On to B1, for which, in test [1], the Ka is 2.45e+09 M⁻¹; the Kd (in general, the concentration at which binding is half-saturated) came out at 0.408 nM; the koff (commonly the first-order rate constant of dissociation) stood at 8.79e-05 s⁻¹.

B2: STL4 (antibody, V domains shown)
VH: B1 VH
VL: B1 VL
notes: Mouse monoclonal antibody (BALB/c hybridoma, purified from ascites); mouse IgG1 served as the control; also called anti-DLL4 antibody; anti-Dll4-antibody (STL4)
B2: the binding result in test [2], in test [3], in test [4] and in test [5] was “no binding” throughout.

(Values after patent publication US20100303812A1 (SMART TARGETING, published 2010).)
